According to the supplement of paper PMC9233669:
Variants at the floor of the assay were thinned out.

What was measured:
biotinyl-Val-oxazolone = assay: self-aminoacylation, catalytic enhancement (BVO) (fold over background); higher = more active; k-Seq, kA / k0A0; sequences stand for … in GGGAAUGGAUCCACAUCUACGAAUUC…UUCACUGCAGACUUGACGAAGCUG
Method in brief: (§1)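 Mutagenized RNA pools (0.43 μM; 21-nt variable region) were treated with 2–1250 μM of each biotinyl-aminoacyl-oxazolone. Conditions were 50 μL HEPES/NaCl/KCl/MgCl2/CaCl2 buffer, 5% acetonitrile, pH 6.9–7.0, room temperature, 90 minutes. Catalytic enhancement, the median kA relative to the uncatalyzed rate, was derived from streptavidin capture, qPCR and Illumina sequencing.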

biotinyl-Phe-oxazolone = assay: self-aminoacylation, catalytic enhancement (BFO) (fold over background); higher = more active; k-Seq, kA / k0A0; sequences stand for … in GGGAAUGGAUCCACAUCUACGAAUUC…UUCACUGCAGACUUGACGAAGCUG
Method in brief: as §1

biotinyl-Ile-oxazolone = assay: self-aminoacylation, catalytic enhancement (BIO) (fold over background); higher = more active; k-Seq, kA / k0A0; sequences stand for … in GGGAAUGGAUCCACAUCUACGAAUUC…UUCACUGCAGACUUGACGAAGCUG
Method in brief: as §1

biotinyl-Leu-oxazolone = assay: self-aminoacylation, catalytic enhancement (BLO) (fold over background); higher = more active; k-Seq, kA / k0A0; sequences stand for … in GGGAAUGGAUCCACAUCUACGAAUUC…UUCACUGCAGACUUGACGAAGCUG
Method in brief: as §1

biotinyl-Trp-oxazolone = assay: self-aminoacylation, catalytic enhancement (BWO) (fold over background); higher = more active; k-Seq, kA / k0A0; sequences stand for … in GGGAAUGGAUCCACAUCUACGAAUUC…UUCACUGCAGACUUGACGAAGCUG
Method in brief: as §1

biotinyl-Met-oxazolone = assay: self-aminoacylation, catalytic enhancement (BMO) (fold over background); higher = more active; k-Seq, kA / k0A0; sequences stand for … in GGGAAUGGAUCCACAUCUACGAAUUC…UUCACUGCAGACUUGACGAAGCUG
Method in brief: as §1

Sequence	self-aminoacylation (biotinyl-Val-oxazolone)	self-aminoacylation (biotinyl-Phe-oxazolone)	self-aminoacylation (biotinyl-Ile-oxazolone)	self-aminoacylation (biotinyl-Leu-oxazolone)	self-aminoacylation (biotinyl-Trp-oxazolone)	self-aminoacylation (biotinyl-Met-oxazolone)
AUUCACGUAGGUCAUCGGGGG [Fam2.2 aminoacylation ribozyme variant]	2.09	1.73	2.24	2.4	2.53	2.66
AUUCACGUAGGUCAUCGGGUG [Fam2.2 aminoacylation ribozyme variant]	5.15	53.2	4.22	7.22	6.49	6.62
AUUCACGUAGGUCAUUGGGUG [Fam2.2 aminoacylation ribozyme variant]	4	25.2	3.18	5.11	4	4.43
AUUCACGUAGGUGAUCGGGUG [Fam2.2 aminoacylation ribozyme variant]	3.52	20.3	2.91	4.12	3.33	3.98
AUUCACGUAGGUUAUCGGGUG [Fam2.2 aminoacylation ribozyme variant]	5.09	38.9	3.34	4.91	4.68	5.38
AUUCACUUAAGUCAUCGGGUG [Fam2.2 aminoacylation ribozyme variant]	5.11	71.7	5.72	12.4	9.67	8.88
AUUCACUUAGGUCAUCGAGUG [Fam2.2 aminoacylation ribozyme variant]	1.64	4.43	1.68	2.75	1.99	2.42
AUUCACUUAGGUCAUCGCGUG [Fam2.2 aminoacylation ribozyme variant]	6.11	94.5	6.03	15	11.1	11.7
AUUCACUUAGGUCAUCGGAUG [Fam2.2 aminoacylation ribozyme variant]	0.714	0.46	0.701	0.579	0.528	0.766
AUUCACUUAGGUCAUCGGCUG [Fam2.2 aminoacylation ribozyme variant]	1.65	4.69	1.46	1.17	1.45	1.47
AUUCACUUAGGUCAUCGGGGG [Fam2.2 aminoacylation ribozyme variant]	1.95	2.12	2.04	2.74	2.16	2.13
AUUCACUUAGGUCAUCGUGUG [Fam2.2 aminoacylation ribozyme variant]	0.777	0.821	0.779	0.869	0.747	0.802
AUUCACUUAGGUGAUCGGGUG [Fam2.2 aminoacylation ribozyme variant]	2.5	13.3	2.46	3.43	3.03	2.59
AUUCACUUAUGUCAUCGGGUG [Fam2.2 aminoacylation ribozyme variant]	3.08	42.6	3.42	7.31	5.18	5.5
AUUCACUUGGGUCAUCGGGUG [Fam2.2 aminoacylation ribozyme variant]	4.44	43.9	4.61	7.5	6.5	6.84
AUUCAGCUAGAUCAUCGGGUG [Fam2.2 aminoacylation ribozyme variant]	2.85	26.3	2.71	4.61	3.9	4.04
AUUCAGCUAGGACAUCGGGUG [Fam2.2 aminoacylation ribozyme variant]	3.53	42.1	3.53	5.98	4.43	4.65
AUUCAGCUAGGUCAACGGGUG [Fam2.2 aminoacylation ribozyme variant]	1.83	5.84	1.81	2.43	2.6	1.92
AUUCAGCUAGGUCACCGGGUG [Fam2.2 aminoacylation ribozyme variant]	4.32	51.6	4.69	6.32	7.07	7.17
AUUCAGCUAGGUCAUCCGGUG [Fam2.2 aminoacylation ribozyme variant]	5.44	44.2	5.29	8.88	8.08	6.6
AUUCAGCUAGGUCAUCGGGAG [Fam2.2 aminoacylation ribozyme variant]	1.68	4.09	1.72	1.69	1.32	1.61
AUUCAGCUCGGUCAUCGGGUG [Fam2.2 aminoacylation ribozyme variant]	5.43	78.7	4.88	9.01	7.34	9.53

Sequence	self-aminoacylation (biotinyl-Val-oxazolone)	self-aminoacylation (biotinyl-Phe-oxazolone)	self-aminoacylation (biotinyl-Ile-oxazolone)	self-aminoacylation (biotinyl-Leu-oxazolone)	self-aminoacylation (biotinyl-Trp-oxazolone)	self-aminoacylation (biotinyl-Met-oxazolone)
AUUCAGCUGGGUCAUCGGGUG [Fam2.2 aminoacylation ribozyme variant]	4.76	37.9	3.79	5.07	4.72	5.66
AUUCAUCAAGGUCAUCGGGUG [Fam2.2 aminoacylation ribozyme variant]	5.94	74.7	5.94	10.9	10.2	9.84
AUUCAUCUAGAUCAUCGGGUG [Fam2.2 aminoacylation ribozyme variant]	2.14	14.1	2.1	4.1	3.24	2.68
AUUCAUCUAGGCCAUCGGGUG [Fam2.2 aminoacylation ribozyme variant]	2.84	19	2.39	5.22	3	3.38
AUUCAUCUAGGGCAUCGGGUG [Fam2.2 aminoacylation ribozyme variant]	2.97	21.4	2.81	4.32	2.7	3.45
AUUCAUCUAGGUCAUAGGGUG [Fam2.2 aminoacylation ribozyme variant]	1.87	10.1	2	3.39	2.83	2.63
AUUCAUCUAGGUCAUCGGGGG [Fam2.2 aminoacylation ribozyme variant]	1.9	5.32	1.82	2.31	2.14	2.13
AUUCAUCUAUGUCAUCGGGUG [Fam2.2 aminoacylation ribozyme variant]	3.8	50.7	4.09	8.74	6.27	6.63
AUUCAUUUAGGUCAUCGGGUG [Fam2.2 aminoacylation ribozyme variant]	3.33	45.6	3.25	6.72	5.6	5.48
AUUCCCCAGGUCAUCGAGUGA [Fam2.1 aminoacylation ribozyme variant]	3.75	21.1	3.12	4.83	6.65	4.86
AUUCCCCGGGUCAUCGAGUGA [Fam2.1 aminoacylation ribozyme variant]	2.92	30	3.32	4.99	6.46	4.59
AUUCCCCUAGGUCAUCGCGUG [Fam2.2 aminoacylation ribozyme variant]	77.6	826	64.1	141	99.5	102
AUUCCCCUAGGUCAUCGGGUG [Fam2.2 aminoacylation ribozyme variant]	14.9	196	14.9	32.9	23.2	24.4
AUUCCCCUAGGUCAUUGGGUG [Fam2.2 aminoacylation ribozyme variant]	7.95	92.5	7.23	15.6	11.8	10.3
AUUCCCCUAGGUCGUCGGGUG [Fam2.2 aminoacylation ribozyme variant]	5.97	31.9	5.97	9.19	7.42	7.13
AUUCCCCUAUGUCAUCGGGUG [Fam2.2 aminoacylation ribozyme variant]	10.9	154	12.2	23.5	18.4	19.2
AUUCCCCUGGUCAUCGAGUGC [Fam2.1 aminoacylation ribozyme variant]	1.64	1.33	1.36	1.63	2.07	1.35
AUUCCCCUGGUCAUCGAGUGU [Fam2.1 aminoacylation ribozyme variant]	2.61	15.2	2.39	3.28	3.8	3.09
AUUCCCCUGGUCAUCGCGUGA [Fam2.1 aminoacylation ribozyme variant]	15	213	12.2	28.2	26.8	22.1
AUUCCCCUGGUCAUCGGGUGA [Fam2.1 aminoacylation ribozyme variant]	8.68	106	7.79	14.4	15.6	14.1
AUUCCCCUGGUCGUCGAGUGA [Fam2.1 aminoacylation ribozyme variant]	1.33	6.18	1.48	1.71	1.52	1.42
